# Assay results taken from paper PMC9146797, “[^99mTc]Tc-Labeled Plectin-Targeting Peptide as a Novel SPECT Probe for Tumor Imaging” (Pharmaceutics, 2022).
# Where a SMILES comes first, the peptide text is derived from it. Where no end group is shown, it is not given here.
# How the values were obtained:
# [1] = In vitro stability in FBS (RCP by ITLC); format: in vitro ADME, bovine; conditions: 37 °C, 0-6 h
# Protocol: The [^99mTc]Tc-labeled PTP was characterized using an Agilent 1260 HPLC system (Agilent Technologies, Santa Clara, CA, USA) equipped with a UV-vis detector (λ = 220 nm) and a radioactive flow detector (BioScan, Poway, CA, USA). A SunFire C18 column (5 µm, 4.6 × 250 mm, Waters, Japan) was used at a 1 mL/min flow rate with the following gradient method: 0.1% trifluoroacetic acid in H2O and CH3CN (0–20 min, 15–45% CH3CN). The RCP of [^99mTc]Tc-HYNIC-PTP was determined by radio-HPLC and could also be rapidly analyzed by ITLC in a system consisting of silica gel 60 F254 TLC plates (Merck, Germany) and 50% acetonitrile as mobile phase. To assess the stability in vitro, the formed [^99mTc]Tc-HYNIC-PTP (500 μL, 1 mCi) was mixed with 500 μL of PBS (0.1 M, pH = 7.4) and 500 µL of cysteine solution (100-fold molar excess over the PTP) at room temperature, and 500 µL of FBS at 37 °C. The RCPs were tested by ITLC at different time intervals (0–6 h).
# [2] = test system: healthy ICR mice; experiment: Pharmacokinetics in blood; format: in vivo; conditions: for radioactivity in blood: i.v. 20 µCi
# Protocol: The pharmacokinetic profile of [^99mTc]Tc-HYNIC-PTP was investigated in healthy ICR mice. The mice were randomly divided into nine groups (n = 3), and each mouse was intravenously injected with [^99mTc]Tc-HYNIC-PTP at a dose of 20 µCi in a 200 µL solution. One hundred microliters of blood from each mouse was immediately collected and weighed at designated times (1, 2, 5, 15, 30, 60, 120, 240, and 360 min), and radioactivity was measured using a γ-counter (CAPINTEC, USA) to calculate the percent uptake of the injected dose per gram (%ID/g). In addition, the pharmacokinetic data were analyzed by DAS 2.0 (Shanghai, China) using a two-compartment model to calculate the half-life of [^99mTc]Tc-HYNIC-PTP in the blood.
# [3] = test system: tumor-bearing mice (U87, C6, A549, 4T1, and BxPC-3); experiment: SPECT imaging in vivo; conditions: i.v. 200 µL of 10 mCi/mL, 0.5-4 h
# Protocol: The feasibility of [^99mTc]Tc-HYNIC-PTP as a SPECT probe for tumor imaging was examined using established subcutaneous tumor models. Briefly, [^99mTc]Tc-HYNIC-PTP solution (200 µL, [^99mTc]Tc = 10 mCi/mL, corresponding to 2 µg of HYNIC-PTP) was intravenously injected into tumor-bearing mice. SPECT images were acquired 0.5, 1, 2, and 4 h after injection using a SPECT imaging system equipped with a Xeleris 2.0 workstation and low-energy general-purpose collimators (Infinia, Denver, CO, USA). After SPECT imaging, the tumors and muscle tissues were excised to confirm plectin expression levels by immunohistochemistry. Briefly, excised specimens were fixed in formalin and embedded in paraffin. The sections (5 μm) were subjected to heat treatment in a citrate solution for antigen retrieval and blocking with 3% bovine serum albumin for 30 min. Then the sections were incubated with anti-plectin primary antibody (1:200) overnight at 4 °C. After incubation with secondary antibody (K5007, DAKO, Carpinteria, CA, USA) at room temperature for 50 min, the slides were treated with 1:100 DAB (K5007, DAKO, USA) and counterstained with hematoxylin. At least three sections of each specimen were chosen, and 5–10 high-power visual fields were randomly selected to calculate the positive area of staining. The average areas were then used to plot histograms.
# [4] = CCK-8 cytotoxicity assay; format: cell-based; conditions: C6 and BEAS-2B cells, PTP 0-200 µg/mL, CCK-8, absorbance 450 nm, BxPC-3, C6, BEAS-2B cells (Figure S1), read-out: cell viability
# Protocol: CCK-8 assays were used to assess the potential cytotoxic effects of PTP on normal and tumor cell lines. Briefly, taking BxPC-3 cells as an example, the cells were seeded into 96-well plates at a density of 1 × 10^4 per well with RPMI-1640 medium and 10% FBS. After 24 h, the medium was replaced with 100 µL of fresh medium containing different concentrations of PTP (0–200 µg/mL) for another 24 h. Next, 10 µL of CCK-8 solution was added, and the cells were subsequently cultured for 1.5 h. Absorbance at 450 nm was measured using a Varioskan Flash multimode microplate reader (Thermo Fisher Scientific, Waltham, MA, USA). The cytocompatibility of PTP was also assessed in C6 and BEAS-2B cells using the same method.
# [5] = test system: BALB/c nude mice; experiment: Preliminary toxicity study in vivo
# Protocol: To assess the preliminary safety in vivo, five BALB/c nude mice were treated with PTP at a single dose (1 mg, 100 µL), and another five mice treated with saline were used as the control group. The body weight, physical activity, and death of each mouse were recorded during the following seven days. The major organs of the mice, including the heart, liver, spleen, lung, and kidneys, were harvested for histological examination.
# [6] = blood, two-compartment model, DAS 2.0
Compound,change of RCP in FBS [1],"radioactivity in blood ([2]; 1 min post-injection, n = 3, γ-counter) [%ID/g]","radioactivity in blood ([2]; 30 min post-injection, n = 3) [%ID/g]","radioactivity in blood ([2]; 360 min post-injection, n = 3)","clear-phase half-life (t1/2 beta) [2, 6] [min]","distribution-phase half-life (t1/2 alpha) [2, 6] [min]",route of clearance [3],viability at 24 h [4] [%],"death of mice ([5]; single dose 1 mg in 100 µL, five mice, seven days, vs saline)","body weight and physical activity ([5]; single dose 1 mg in 100 µL, within seven days, vs saline group)","H&E staining of main organs (heart, liver, lung, spleen, kidneys) ([5]; single dose 1 mg, vs saline group (Figure S2))"
"CC(C)C[C@H](NC(=O)[C@@H](NC(=O)[C@H](CCCCN)NC(=O)c1ccc(NN)nc1)[C@@H](C)O)C(=O)N[C@@H](CC(C)C)C(=O)N1CCC[C@H]1C(=O)N[C@H](C(=O)N1CCC[C@H]1C(=O)O)[C@@H](C)O [[^99mTc]Tc-HYNIC-PTP, metal not drawn] (HELM PEPTIDE1{[NNc1ccc(C(=O)[*:2])cn1].K.T.L.L.P.T.P}$$$$V2.0)",no evident changes in RCPs,14.52,1.35,Less than 0.01 %ID/g,9.17,0.88,predominantly cleared through the urinary system,,,,
KTLLPTP [PTP],,,,,,,,> 90,None of the mice died,no significant difference,"no significant difference in tissue damage, necrotic areas, or abnormalities"
